In test [1] the target is wild type HspB5 (αB-crystallin) (human) (UniProt P02511). As to the kind of experiment: SEC; untreated Neo, WT or R120G HeLa cells lysed in TEM buffer with 0.1% Triton X-100; 10,000×g supernatant on a Sepharose 6B column (1×100 cm) in TEM buffer (20 mM Tris-HCl pH 7.4, 20 mM NaCl, 5 mM MgCl2, 0.1 mM EDTA); pooled fractions immunoblotted.
The target is the same in test [2]. The test can be described thus: co-IP; as the 150 mM experiment, but washes of the immunoprecipitated proteins in IPP300 buffer (0.3 M NaCl).
The target is the same in test [3]. The test can be described thus: SEC; cells treated for 2 h with 60 µM menadione before lysis; 10,000×g supernatant on Sepharose 6B in TEM buffer; fractions immunoblotted. (Size exclusion chromatography separates by hydrodynamic size, large species first.)
Test [4] addresses HspB1 (Hsp27) (human (endogenous in HeLa)) (UniProt P04792). As to the kind of experiment: co-IP; as the 150 mM experiment, but washes of the immunoprecipitated proteins in IPP300 buffer (0.3 M NaCl).
Test [5] shares this target. The test can be described thus: co-IP; pooled gel filtration fractions (pool I of WT cells, pool II of R120G cells) with anti-HspB1 or anti-HspB5 antibody, 4 h at 4°C, protein G sepharose; washes in IPP150 (20 mM Tris-HCl pH 8, 150 mM NaCl, 0.05% NP-40); immunoblot of total, precipitate and depleted supernatant.

Sequence of wild type HspB5 (αB-crystallin) (human) (P02511 whole entry): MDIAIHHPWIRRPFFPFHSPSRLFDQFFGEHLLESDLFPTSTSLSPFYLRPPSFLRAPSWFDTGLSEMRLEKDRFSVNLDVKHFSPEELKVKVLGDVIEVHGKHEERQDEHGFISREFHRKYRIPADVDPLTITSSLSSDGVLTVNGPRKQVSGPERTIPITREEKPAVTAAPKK
Sequence of HspB1 (Hsp27) (human (endogenous in HeLa)) (P04792 whole entry): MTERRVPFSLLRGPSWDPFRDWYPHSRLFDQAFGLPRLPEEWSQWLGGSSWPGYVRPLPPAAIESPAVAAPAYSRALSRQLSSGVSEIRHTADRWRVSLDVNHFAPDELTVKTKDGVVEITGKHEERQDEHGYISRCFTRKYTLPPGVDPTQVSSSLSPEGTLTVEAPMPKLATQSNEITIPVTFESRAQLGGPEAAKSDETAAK

The substance “HspB1 (Hsp27) (from UniProt P04792 1-205) (natural protein)” came in with a percent of HspB1 sharing the native size of HspB5 in test [1] of 90%. In test [2], the percent of the partner removed from the complex by the 300 mM NaCl wash is 40%. In test [3], this substance had a percent of soluble HspB1 back in the small oligomers (out of the complex) of 38%.
With “HspB1 phosphorylated at serine 15 (from UniProt P04792 1-205) (natural protein)”, in test [3], the percent of the soluble phosphorylated form in the complex stood at 56% and the percent of the total cellular content of the phosphorylated form in the complex was found to be 28%.
Regarding “HspB1 phosphorylated at serine 78 (from UniProt P04792 1-205) (natural protein)”, in test [3], the percent of the soluble phosphorylated form in the complex came to 65% and the percent of the total cellular content of the phosphorylated form in the complex came to 31%.
“HspB1 phosphorylated at serine 82 (from UniProt P04792 1-205) (natural protein)” displayed a percent of the total cellular content of the phosphorylated form in the complex in test [1] of 56%. In test [3], this substance gave a percent of the soluble phosphorylated form in the complex of 51% and a percent of the total cellular content of the phosphorylated form in the complex of 27%.
Turning to “wild type HspB5 (αB-crystallin) (from UniProt P02511 1-175) (natural protein)”, in test [4], the percent of the partner removed from the complex by the 300 mM NaCl wash came out at 40%. This substance yielded a percent of the proteins in the pooled fractions that were in the complex in test [5] of 100%.

Values taken from article PMC3741289.
